Test results as given in US20260242478A1 (published 2026).
Where no end group is shown, it is not given here.

B1: Phage-252 (peptide)
peptide: MDWCPRHMWINCFA
modifications: cysteine pairing not given here; also: fused to phage pIII, linker and fusion site not given here
notes: Clonal phage of the Peptide-9 library, tested as crude phage supernatant; not shown: pIII of the bacteriophage
B2: Phage-259 (peptide)
peptide: MDWCPRNLWHACFN
modifications: cysteine pairing not given here; also: fused to phage pIII, linker and fusion site not given here
notes: as for B1
B3: Phage-256 (peptide)
peptide: MDWCPFDLWHVCYN
modifications: cysteine pairing not given here; also: fused to phage pIII, linker and fusion site not given here
notes: as for B1
B4: Phage-251 (peptide)
peptide: MDWCPRFMWSECFS
modifications: cysteine pairing not given here; also: fused to phage pIII, linker and fusion site not given here
notes: as for B1
B5: Phage-264 (peptide)
peptide: MDWCPRHLWHVCFN
modifications: cysteine pairing not given here; also: displayed on phage pIII, linker not given here
notes: as for B1
B6: Phage-255 (peptide)
peptide: MDWCPRHLWSVCFN
modifications: cysteine pairing not given here; also: fused to phage pIII, linker and fusion site not given here
notes: as for B1
B7: Phage-262 (peptide)
peptide: MYWCATSMWNRCFV
modifications: cysteine pairing not given here; also: displayed on phage pIII, linker not given here
notes: as for B1
B8: Phage-263 (peptide)
peptide: MDWCPRHMWHECFA
modifications: cysteine pairing not given here; also: displayed on phage pIII, linker not given here
notes: as for B1
B9: Phage-257 (peptide)
peptide: MDWCPRFLWHECFN
modifications: cysteine pairing not given here; also: fused to phage pIII, linker and fusion site not given here
notes: as for B1
B10: Phage-261 (peptide)
peptide: MDWCPMFMWHECFN
modifications: cysteine pairing not given here; also: displayed on phage as pIII fusion, fusion limits and linker not given here
notes: as for B1
B11: Phage-253 (peptide)
peptide: MVGCATSMWNRCLT
modifications: cysteine pairing not given here; also: fused to phage pIII, linker and fusion site not given here
notes: as for B1
B12: Phage-254 (peptide)
peptide: MDWCPRYLWSECFA
modifications: cysteine pairing not given here; also: fused to phage pIII, linker and fusion site not given here
notes: as for B1

molecular target: T1, Anti-CD28 scFv (VH - linker 1 - VL) (biotinylated (site not stated)); assay: phage ELISA; biotinylated anti-CD28 scFv on neutravidin plate, clonal phage supernatant, anti-M13-HRP;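 note: before the phage were added, wells were pre-incubated with soluble CD28 protein in blocking buffer, or with blocking buffer alone, and were not washed in between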
T1 construct: Biotinylated scFv captured on neutravidin coated plates in the panning ELISA
T1 sequence (scFv, as listed by the source): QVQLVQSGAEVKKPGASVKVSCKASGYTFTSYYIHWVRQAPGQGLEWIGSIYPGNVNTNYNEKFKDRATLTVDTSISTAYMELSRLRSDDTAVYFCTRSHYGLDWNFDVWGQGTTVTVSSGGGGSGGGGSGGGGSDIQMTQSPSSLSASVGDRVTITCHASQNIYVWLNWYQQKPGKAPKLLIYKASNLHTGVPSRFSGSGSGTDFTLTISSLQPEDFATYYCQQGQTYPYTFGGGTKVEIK

Row | Binder | CD28 scFv signal
1 | IMWCPTSLWNRCVT [Phage-384] | 0.161
2 | MHWCPRDLWYECFA [Phage-369] | 0.995
3 | ITWCPTSLWNRCLV [Phage-382] | 0.242
4 | MHWCPLHLWNECFA [Phage-378] | 0.575
5 | MTWCPAYLWHECFN [Phage-370] | 0.985
6 | ILRCQMNLQDECLN [Phage-385] | 0.083
7 | MNWCPRALWHECFL [Phage-375] | 0.759
8 | MSWCPPYLWTVCYN [Phage-368] | 1.1
9 | MAWCPLDLWDKCFY [Phage-374] | 0.77
10 | MDWCPRNLWAECFS [Phage-379] | 0.538
11 | MDWCPFDLWLECFN [Phage-377] | 0.65
12 | MDWCPRILWSDCFN [Phage-373] | 0.847
13 | MDYCPSYLWHECFA [Phage-380] | 0.47
14 | MDWCPRHLWLECFN [Phage-387] | 0.066
15 | LAGCQRDLATVCVI [Phage-383] | 0.229
16 | MDWCPRYLWVDCFA [Phage-372] | 0.917
17 | NHWCPTTLWNRCVA [Phage-386] | 0.078
18 | MAWCPRILWHQCFN [Phage-381] | 0.322
19 | MDWCPRHLWTYCFH [Phage-376] | 0.757

molecular target: T2, Anti-CD28 scFv (VH - linker 1 - VL) (biotinylated (site not given)); assay: phage binding ELISA; biotinylated anti-CD28 scFv on neutravidin plate, bound phage detected with anti-M13-HRP
T2 sequence (scFv, as listed by the source): as above

Row | Binder | CD28 scFv signal
20 | B1 | 0.92
21 | B2 | 1.57
22 | B3 | 2.6
23 | B4 | 1.01
24 | B5 | 2.67
25 | B6 | 2.65
26 | B7 | 0.398
27 | B8 | 2.52
28 | B9 | 2.59
29 | B10 | 2.23
30 | B11 | 0.77
31 | B12 | 2.71

molecular target: T2, Anti-CD28 scFv (VH - linker 1 - VL); assay: phage binding ELISA on anti-CD28 scFv plate; wells pre-incubated with soluble CD28 as competitor;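 note: clonal phage supernatants tested, bound phage read out with an HRP-linked anti-M13 antibody, reference wells received blocking buffer lacking CD28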
Experimental: (§1) Clonal phage were harvested as crude supernatants and screened via standard enzyme linked immunosorbent assays (ELISAs). […] Prior to the addition of clonal phage, wells were incubated with blocking buffer and CD28 soluble protein or blocking buffer alone. Without washing or aspirating, clonal phage supernatants were then added to the wells and incubated for a short time. Wells were then washed followed by detection of bound phage using a horse radish peroxidase conjugated anti-M13 antibody.

Row | Binder | CD28 scFv signal in presence of CD28
32 | B1 | 0.165
33 | B2 | 0.112
34 | B3 | 0.651
35 | B4 | 0.137
36 | B5 | 0.636
37 | B6 | 0.825
38 | B7 | 0.415
39 | B8 | 0.298
40 | B9 | 0.351
41 | B10 | 1.04
42 | B11 | 0.746
43 | B12 | 0.513

molecular target: T1, Anti-CD28 scFv (VH - linker 1 - VL); assay: phage ELISA as above, wells pre-incubated with soluble CD28 (competitor);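 note: ELISA of crude clonal phage supernatants added to wells pre-treated with soluble CD28 in blocking buffer, bound phage read out with HRP-conjugated anti-M13 antibody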
Experimental: as §1

Row | Binder | CD28 scFv signal in presence of CD28
44 | IMWCPTSLWNRCVT [Phage-384] | 0.129
45 | MHWCPRDLWYECFA [Phage-369] | 0.108
46 | ITWCPTSLWNRCLV [Phage-382] | 0.089
47 | MHWCPLHLWNECFA [Phage-378] | 0.083
48 | MTWCPAYLWHECFN [Phage-370] | 0.139
49 | ILRCQMNLQDECLN [Phage-385] | 0.077
50 | MNWCPRALWHECFL [Phage-375] | 0.107
51 | MSWCPPYLWTVCYN [Phage-368] | 0.326
52 | MAWCPLDLWDKCFY [Phage-374] | 0.141
53 | MDWCPRNLWAECFS [Phage-379] | 0.08
54 | MDWCPFDLWLECFN [Phage-377] | 0.12
55 | MDWCPRILWSDCFN [Phage-373] | 0.113
56 | MDYCPSYLWHECFA [Phage-380] | 0.09
57 | MDWCPRHLWLECFN [Phage-387] | 0.074
58 | LAGCQRDLATVCVI [Phage-383] | 0.116
59 | MDWCPRYLWVDCFA [Phage-372] | 0.218
60 | NHWCPTTLWNRCVA [Phage-386] | 0.093
61 | MAWCPRILWHQCFN [Phage-381] | 0.129
62 | MDWCPRHLWTYCFH [Phage-376] | 0.207
